Source: patent publication US20030088057

What was measured:
histone 2B = histone 2B (UniProt P62808)
histone 4 = histone 4 (UniProt P62803)
myelin basic protein = myelin basic protein (UniProt P02687)
rat prolactin = rat prolactin (UniProt P01237)
Sequence of rat prolactin (P01237 30-226): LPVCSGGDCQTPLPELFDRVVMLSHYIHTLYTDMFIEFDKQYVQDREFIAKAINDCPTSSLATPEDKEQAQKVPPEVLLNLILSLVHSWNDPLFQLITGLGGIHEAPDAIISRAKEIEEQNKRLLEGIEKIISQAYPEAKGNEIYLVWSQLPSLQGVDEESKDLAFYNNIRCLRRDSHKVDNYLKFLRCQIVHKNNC

Sequence of myelin basic protein (P02687 whole entry): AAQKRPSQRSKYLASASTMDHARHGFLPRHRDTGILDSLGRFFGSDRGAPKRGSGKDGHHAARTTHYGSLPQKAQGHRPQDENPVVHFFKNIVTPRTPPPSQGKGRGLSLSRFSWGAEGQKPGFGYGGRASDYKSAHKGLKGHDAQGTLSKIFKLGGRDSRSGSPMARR

Substance: γ-PAK activated by limited digestion with trypsin
- 32P incorporated, proteolytically activated (pmol min^-1 µg^-1) (AAAASKR): 0
- rel rate (%), proteolytically activated (KKRKSAA = 100) (AAAASKR): 0%
- 32P incorporated, proteolytically activated (pmol min^-1 µg^-1) (AAKKSAA): 0
- rel rate (%), proteolytically activated (KKRKSAA = 100) (AAKKSAA): 0%
- 32P incorporated, proteolytically activated (pmol min^-1 µg^-1) (AAKRSAA): 0
- rel rate (%), proteolytically activated (KKRKSAA = 100) (AAKRSAA): 0%
- 32P incorporated, proteolytically activated (pmol min^-1 µg^-1) (AARASAA): 169
- rate of phosphorylation relative to AKRASAA (AARASAA): significantly slower rate (40 and 56%) as compared to AKRASAA (SEQ ID NO:6) and KKRKSAA (SEQ ID NO:8), respectively
- rel rate (%), proteolytically activated (KKRKSAA = 100) (AARASAA): 56%
- 32P incorporated, proteolytically activated (pmol min^-1 µg^-1) (AKAASAA): 5
- rel rate (%), proteolytically activated (KKRKSAA = 100) (AKAASAA): 2%
- 32P incorporated, proteolytically activated (pmol min^-1 µg^-1) (AKRASAA): 426
- rel rate (%), proteolytically activated (KKRKSAA = 100) (AKRASAA): 141%
- 32P incorporated, proteolytically activated (pmol min^-1 µg^-1) (AKRASEA): 326
- rate of phosphorylation relative to AKRASAA (AKRASEA): a glutamate residue in the +1 position decreased the rate to 71%
- rel rate (%), proteolytically activated (KKRKSAA = 100) (AKRASEA): 108%
- 32P incorporated, proteolytically activated (pmol min^-1 µg^-1) (AKRASGA): 324
- rel rate (%), proteolytically activated (KKRKSAA = 100) (AKRASGA): 107%
- 32P incorporated, proteolytically activated (pmol min^-1 µg^-1) (AKRASPA): 0
- rel rate (%), proteolytically activated (KKRKSAA = 100) (AKRASPA): 0%
- 32P incorporated, proteolytically activated (pmol min^-1 µg^-1) (AKRESAA): 750
- rate of phosphorylation relative to AKRASAA (AKRESAA): increased the rate of phosphorylation relative to AKRASAA (SEQ ID NO:6) to 175 and 113%, respectively
- rel rate (%), proteolytically activated (KKRKSAA = 100) (AKRESAA): 247%
- 32P incorporated, proteolytically activated (pmol min^-1 µg^-1) (AKRGSAA): 381
- rel rate (%), proteolytically activated (KKRKSAA = 100) (AKRGSAA): 126%
- 32P incorporated, proteolytically activated (pmol min^-1 µg^-1) (AKRKSAA): 548
- rel rate (%), proteolytically activated (KKRKSAA = 100) (AKRKSAA): 181%
- 32P incorporated, proteolytically activated (pmol min^-1 µg^-1) (AKRPSAA): 16
- rel rate (%), proteolytically activated (KKRKSAA = 100) (AKRPSAA): 6%
- 32P incorporated, proteolytically activated (pmol min^-1 µg^-1) (ARKASAA): 16
- rel rate (%), proteolytically activated (KKRKSAA = 100) (ARKASAA): 6%
- 32P incorporated, proteolytically activated (pmol min^-1 µg^-1) (ARRASAA): 391
- rel rate (%), proteolytically activated (KKRKSAA = 100) (ARRASAA): 129%
- 32P incorporated, proteolytically activated (pmol min^-1 µg^-1) (EKRASAA): 484
- rate of phosphorylation relative to AKRASAA (EKRASAA): increased the rate of phosphorylation relative to AKRASAA (SEQ ID NO:6) to 175 and 113%, respectively
- rel rate (%), proteolytically activated (KKRKSAA = 100) (EKRASAA): 160%
- 32P incorporated, proteolytically activated (pmol min^-1 µg^-1) (KKAASAA): 0
- rel rate (%), proteolytically activated (KKRKSAA = 100) (KKAASAA): 0%
- 32P incorporated, proteolytically activated (pmol min^-1 µg^-1) (KKRASAA): 586
- rel rate (%), proteolytically activated (KKRKSAA = 100) (KKRASAA): 193%
- 32P incorporated, proteolytically activated (pmol min^-1 µg^-1) (KKRKSAA): 302
- rel rate (%), proteolytically activated (KKRKSAA = 100) (KKRKSAA): 100%
- 32P incorporated, proteolytically activated (pmol min^-1 µg^-1) (PKRASAA): 636
- rel rate (%), proteolytically activated (KKRKSAA = 100) (PKRASAA): 209%
- 32P incorporated, proteolytically activated (pmol min^-1 µg^-1) (RKKKSAA): 0
- rel rate (%), proteolytically activated (KKRKSAA = 100) (RKKKSAA): 0%

Substance: active γ-PAK (mode of activation not stated for this experiment)
- 32P incorporated (AAAASKR): 0 pmol/unit
- 32P incorporated, % (AKRASAA = 100) (AAAASKR): 0%
- Km (AARASAA): 1880 µM
- Vmax (AARASAA): 2.27 pmol/min
- Vmax/Km (pmol min^-1 mM^-1) (AARASAA): 1.2
- Km (AKAASAA): > 5000 µM
- 32P incorporated (AKRASAA): 26.8 pmol/unit
- 32P incorporated, % (AKRASAA = 100) (AKRASAA): 100%
- Km (AKRASAA): 460 µM
- Vmax/Km (pmol min^-1 mM^-1) (AKRASAA): 2.2
- 32P incorporated (AKRASEA): 18.3 pmol/unit
- 32P incorporated, % (AKRASAA = 100) (AKRASEA): 68%
- Km (AKRASEA): 1420 µM
- Km relative to AKRASAA (AKRASEA): Glutamate in the -1 or +1 position increased the Km by ˜3-fold
- Vmax (AKRASEA): 2.22 pmol/min
- Vmax relative to AKRASAA (AKRASEA): >2-fold increase in the Vmax when glutamate was in the -4 or +1 position
- Vmax/Km (pmol min^-1 mM^-1) (AKRASEA): 1.6
- Vmax/Km relative to AKRASAA (AKRASEA): 0.7-fold when glutamate was in the +1 position of AKRASEA
- Km (AKRASGA): 2090 µM
- Km relative to AKRASAA (AKRASGA): increased the Km by 4-fold and the Vmax by 3-fold
- Vmax (AKRASGA): 3.49 pmol/min
- Vmax relative to AKRASAA (AKRASGA): increased the Km by 4-fold and the Vmax by 3-fold
- Vmax/Km (pmol min^-1 mM^-1) (AKRASGA): 1.7
- Km (AKRASPA): > 5000 µM
- 32P incorporated (AKRESAA): 47.2 pmol/unit
- 32P incorporated, % (AKRASAA = 100) (AKRESAA): 176%
- Km (AKRESAA): 1350 µM
- Km relative to AKRASAA (AKRESAA): Glutamate in the -1 or +1 position increased the Km by ˜3-fold
- Vmax (AKRESAA): 6.62 pmol/min
- Vmax relative to AKRASAA (AKRESAA): 6-fold higher than with AKRASAA
- Vmax/Km (pmol min^-1 mM^-1) (AKRESAA): 4.9
- Vmax/Km relative to AKRASAA (AKRESAA): an increase in the overall rate (Vmax/Km) of ˜2.2-fold
- Km (AKRGSAA): 3520 µM
- Km relative to AKRASAA (AKRGSAA): increased the Km by 7-fold over that of the peptide containing alanine at that position
- Vmax (AKRGSAA): 6.44 pmol/min
- Vmax relative to AKRASAA (AKRGSAA): the Vmax was increased by 6-fold
- Vmax/Km (pmol min^-1 mM^-1) (AKRGSAA): 1.8
- Km (AKRKSAA): 480 µM
- Vmax (AKRKSAA): 2.34 pmol/min
- Vmax/Km (pmol min^-1 mM^-1) (AKRKSAA): 4.8
- Vmax/Km relative to AKRASAA (AKRKSAA): ˜2 fold higher than that of AKRASAA
- 32P incorporated (AKRPSAA): 1.2 pmol/unit
- 32P incorporated, % (AKRASAA = 100) (AKRPSAA): 5%
- Km (AKRPSAA): > 5000 µM
- rate of phosphorylation relative to ARRASVA (ARAASVA): phosphorylated at a slower rate (40%) compared to ARRASVA (SEQ ID NO:17) (100%)
- 32P incorporated (ARKASAA): 0.9 pmol/unit
- 32P incorporated, % (AKRASAA = 100) (ARKASAA): 3%
- Km (ARKASAA): > 5000 µM
- 32P incorporated (ARRASAA): 25 pmol/unit
- 32P incorporated, % (AKRASAA = 100) (ARRASAA): 93%
- Km (ARRASAA): 650 µM
- Vmax (ARRASAA): 2.11 pmol/min
- Vmax/Km (pmol min^-1 mM^-1) (ARRASAA): 3.2
- rate of phosphorylation (reference) (ARRASVA): ARRASVA (SEQ ID NO:17) (100%)
- 32P incorporated (EKRASAA): 30.2 pmol/unit
- 32P incorporated, % (AKRASAA = 100) (EKRASAA): 113%
- Km (EKRASAA): 890 µM
- Km relative to AKRASAA (EKRASAA): the Km was increased by 2-fold when glutamate was in the -4 position
- Vmax (EKRASAA): 2.48 pmol/min
- Vmax relative to AKRASAA (EKRASAA): >2-fold increase in the Vmax when glutamate was in the -4 or +1 position
- Vmax/Km (pmol min^-1 mM^-1) (EKRASAA): 2.8
- Vmax/Km relative to AKRASAA (EKRASAA): 1.3-fold with glutamate in the -4 position
- Km (KKRASAA): 370 µM
- Vmax (KKRASAA): 1.59 pmol/min
- Vmax/Km (pmol min^-1 mM^-1) (KKRASAA): 4.3
- Vmax/Km relative to AKRASAA (KKRASAA): ˜2 fold higher than that of AKRASAA
- 32P incorporated (KKRKSAA): 19.2 pmol/unit
- 32P incorporated, % (AKRASAA = 100) (KKRKSAA): 72%
- Km (KKRKSAA): 610 µM
- Vmax (KKRKSAA): 1.84 pmol/min
- Vmax/Km (pmol min^-1 mM^-1) (KKRKSAA): 3
- 32P incorporated (PKRASAA): 40.5 pmol/unit
- 32P incorporated, % (AKRASAA = 100) (PKRASAA): 151%
- Km (PKRASAA): 240 µM
- Km relative to AKRASAA (PKRASAA): decreased the Km by ≈2-fold as compared to AKRASAA
- Vmax (PKRASAA): 1.1 pmol/min
- Vmax/Km (pmol min^-1 mM^-1) (PKRASAA): 4.6
- phosphorylation rate (Vmax/Km) relative to AKRASAA (PKRASAA): an overall effect of a 2-fold increase in the phosphorylation rate
- 32P incorporated (RKKKSAA): 0.1 pmol/unit
- 32P incorporated, % (AKRASAA = 100) (RKKKSAA): 0%
- substrate or not (casein): Proteins that are not substrates for γ-PAK, such as casein, histone 1, cdc42, and rac1 (data not shown)
- substrate or not (cdc42): Proteins that are not substrates for γ-PAK, such as casein, histone 1, cdc42, and rac1 (data not shown)
- 32P incorporated (histone 1): 0 pmol
- rel rate (%) (histone 2B = 100) (histone 1): 0%
- 32P incorporated (histone 2B): 11 pmol
- rel rate (%) (histone 2B = 100) (histone 2B): 100%
- 32P incorporated (histone 4): 8.3 pmol
- rel rate (%) (histone 2B = 100) (histone 4): 74%
- 32P incorporated (myelin basic protein): 4.2 pmol
- rel rate (%) (histone 2B = 100) (myelin basic protein): 37%
- 32P incorporated (protamine): 0 pmol
- rel rate (%) (histone 2B = 100) (protamine): 0%
- substrate or not (rac1): Proteins that are not substrates for γ-PAK, such as casein, histone 1, cdc42, and rac1 (data not shown)
- 32P incorporated (rat prolactin): 1.8 pmol
- rel rate (%) (histone 2B = 100) (rat prolactin): 17%

Substance: Protein kinase C purified from bovine brain
- 32P incorporated (AAAASKR): 13.3 pmol/unit
- 32P incorporated, % (AKRASAA = 100) (AAAASKR): 403%
- 32P incorporated (AKRASAA): 3 pmol/unit
- 32P incorporated, % (AKRASAA = 100) (AKRASAA): 100%
- 32P incorporated (AKRASEA): 0.2 pmol/unit
- 32P incorporated, % (AKRASAA = 100) (AKRASEA): 6%
- 32P incorporated (AKRESAA): 0.4 pmol/unit
- 32P incorporated, % (AKRASAA = 100) (AKRESAA): 12%
- 32P incorporated (AKRPSAA): 3.9 pmol/unit
- 32P incorporated, % (AKRASAA = 100) (AKRPSAA): 118%
- 32P incorporated (ARKASAA): 5.7 pmol/unit
- 32P incorporated, % (AKRASAA = 100) (ARKASAA): 173%
- 32P incorporated (ARRASAA): 18.8 pmol/unit
- 32P incorporated, % (AKRASAA = 100) (ARRASAA): 570%
- 32P incorporated (EKRASAA): 0.1 pmol/unit
- 32P incorporated, % (AKRASAA = 100) (EKRASAA): 3%
- 32P incorporated (KKRKSAA): 11.1 pmol/unit
- 32P incorporated, % (AKRASAA = 100) (KKRKSAA): 370%
- 32P incorporated (PKRASAA): 8.7 pmol/unit
- 32P incorporated, % (AKRASAA = 100) (PKRASAA): 264%
- 32P incorporated (RKKKSAA): 3.1 pmol/unit
- 32P incorporated, % (AKRASAA = 100) (RKKKSAA): 94%
